In US20240261333A1, “NOVEL TARGETS FOR ENHANCING ANTI-TUMOR IMMUNITY” (THE BROAD INSTITUTE, INC., priority 2021, published 2024):

T1: B3GNT2 (Homo sapiens, UniProt Q9NY97)
T1 construct: The respective ORFs of candidate genes [CD274 (NM_014143), MCL1 (NM_021960), JUNB (NM_002229), and B3GNT2 (NM_006577)] were synthesized; expressed in transfected cells; host or cells: A375 melanoma cells (lentiviral ORF overexpression)
T1 sequence (Q9NY97 1-397): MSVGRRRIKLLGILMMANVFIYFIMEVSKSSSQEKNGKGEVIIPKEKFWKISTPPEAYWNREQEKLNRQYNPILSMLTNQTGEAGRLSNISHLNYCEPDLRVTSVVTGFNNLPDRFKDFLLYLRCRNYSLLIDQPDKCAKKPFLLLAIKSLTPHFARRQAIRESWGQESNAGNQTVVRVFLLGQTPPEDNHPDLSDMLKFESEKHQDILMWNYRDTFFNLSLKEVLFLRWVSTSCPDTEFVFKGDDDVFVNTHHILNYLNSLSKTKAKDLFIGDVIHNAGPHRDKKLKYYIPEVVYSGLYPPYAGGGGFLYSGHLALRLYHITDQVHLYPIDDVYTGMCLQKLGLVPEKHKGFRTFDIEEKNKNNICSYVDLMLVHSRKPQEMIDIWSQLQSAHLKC


Biological target: T1, B3GNT2
Test: Co-IP of FLAG-tagged B3GNT2 followed by mass spectrometry
Format: cell-based
Design: C-term IgG / C-term flag: unit not given here
Settings: mass spectrometry count, unit not given; for C-term flag / N-term FLAG: Co-IP with FLAG antibody; for C-term flag / C-term IgG: C-terminally FLAG-tagged B3GNT2; for N-term FLAG / N-term IgG: N-terminally FLAG-tagged B3GNT2; for C-term IgG / N-term IgG: Co-IP with IgG control antibody
Outline: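 Co-purifying proteins were identified by fractionated nano-LC–MS/MS on an Orbitrap Elite, run data-dependent. Beforehand, lysates in 1% Triton X-100/HEPES buffer were incubated overnight at 4° C with anti-FLAG or […] and pulled down on Protein A/G magnetic beads for 4 h. Duplicate biological replicates.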

Row | Molecule | C-term flag | N-term FLAG | C-term IgG | N-term IgG
1 | CSRP1 (protein) MPNWGGGKKCGVCQKTVYFAEEVQCEGNSFHKSCFLCMVCKKNLDSTTVAVHGEEIYCKSCYGKKYGPKGYGYGQGAGTLSTDKGESLGIKHEEAPGHRPTTNPNASKFAQKIGGSERCPRCSQAVYAAEKVIGAGKSWHKACFRCAKCGKGLESTTLADKDGEIYCKGCYAKNFGPKGFGFGQGAGALVHSE | 3 | 0 | 0 | 0
2 | CCT2 (protein) MDKILLSSGRDASLMVTNDGATILKNIGVDNPAAKVLVDMSRVQDDEVGDGTTSVTVLAAELLREAESLIAKKIHPQTIIAGWREATKAAREALLSSAVDHGSDEVKFRQDLMNIAGTTLSSKLLTHHKDHFTKLAVEAVLRLKGSGNLEAIHIIKKLGGSLADSYLDEGFLLDKKIGVNQPKRIENAKILIANTGMDTDKIKIFGSRVRVDSTAKVAEIEHAEKEKMKEKVERILKHGINCFINRQLIYNYPEQLFGAAGVMAIEHADFAGVERLALVTGGEIASTFDHPELVKLGSCKLIEEVMIGEDKLIHFSGVALGEACTIVLRGATQQILDEAERSLHDALCVLAQTVKDSRTVYGGGCSEMLMAHAVTQLANRTPGKEAVAMESYAKALRMLPTIIADNAGYDSADLVAQLRAAHSEGNTTAGLDMREGTIGDMAILGITESFQVKRQVLLSAAEAAEVILRVDNIIKAAPRKRVPDHHPC | 2 | 0 | 0 | 0
3 | CCT7 (protein) MDKLIVDGRGKATISNDGATILKLLDVVHPAAKTLVDIAKSQDAEVGDGTTSVTLLAAEFLKQVKPYVEEGLHPQIIIRAFRTATQLAVNKIKEIAVTVKKADKVEQRKLLEKCAMTALSSKLISQQKAFFAKMVVDAVMMLDDLLQLKMIGIKKVQGGALEDSQLVAGVAFKKTFSYAGFEMQPKKYHNPKIALLNVELELKAEKDNAEIRVHTVEDYQAIVDAEWNILYDKLEKIHHSGAKVVLSKLPIGDVATQYFADRDMFCAGRVPEEDLKRTMMACGGSIQTSVNALSADVLGRCQVFEETQIGGERYNFFTGCPKAKTCTFILRGGAEQFMEETERSLHDAIMIVRRAIKNDSVVAGGGAIEMELSKYLRDYSRTIPGKQQLLIGAYAKALEIIPRQLCDNAGFDATNILNKLRARHAQGGTWYGVDINNEDIADNFEAFVWEPAMVRINALTAASEAACLIVSVDETIKNPRSTVDAPTAAGRGRGRGRPH | 2 | 0 | 0 | 0
4 | ARHGEF2 (protein, UniProt Q92974 1-986, looked up) Rho guanine nucleotide …: MSRIESLTRARIDRSRELASKTREKEKMKEAKDARYTNGHLFTTISVSGMTMCYACNKSITAKEALICPTCNVTIHNRCKDTLANCTKVKQKQQKAALLKNNTALQSVSLRSKTTIRERPSSAIYPSDSFRQSLLGSRRGRSSLSLAKSVSTTNIAGHFNDESPLGLRRILSQSTDSLNMRNRTLSVESLIDEAEVIYSELMSDFEMDEKDFAADSWSLAVDSSFLQQHKKEVMKQQDVIYELIQTELHHVRTLKIMTRLFRTGMLEELHLEPGVVQGLFPCVDELSDIHTRFLSQLLERRRQALCPGSTRNFVIHRLGDLLISQFSGPSAEQMCKTYSEFCSRHSKALKLYKELYARDKRFQQFIRKVTRPAVLKRHGVQECILLVTQRITKYPLLISRILQHSHGIEEERQDLTTALGLVKELLSNVDEGIYQLEKGARLQEIYNRMDPRAQTPVPGKGPFGREELLRRKLIHDGCLLWKTATGRFKDVLVLLMTDVLVFLQEKDQKYIFPTLDKPSVVSLQNLIVRDIANQEKGMFLISAAPPEMYEVHTASRDDRSTWIRVIQQSVRTCPSREDFPLIETEDEAYLRRIKMELQQKDRALVELLREKVGLFAEMTHFQAEEDGGSGMALPTLPRGLFRSESLESPRGERLLQDAIREVEGLKDLLVGPGVELLLTPREPALPLEPDSGGNTSPGVTANGEARTFNGSIELCRADSDSSQRDRNGNQLRSPQEEALQRLVNLYGLLHGLQAAVAQQDTLMEARFPEGPERREKLCRANSRDGEAGRAGAAPVAPEKQATELALLQRQHALLQEELRRCRRLGEERATEAGSLEARLRESEQARALLEREAEEARRQLAALGQTEPLPAEAPWARRPVDPRRRSLPAGDALYLSFNPPQPSRGTDRLDLPVTTRSVHRNFEDRERQELGSPEERLQDSSDPDTGSEEEGSSRLSPPHSPRDFTRMQDIPEETESRDGEAVASES | 2 | 0 | 0 | 0
5 | CD70 (protein) MPEEGSGCSVRRRPYGCVLRAALVPLVAGLVICLVVCIQRFAQAQQQLPLESLGWDVAELQLNHTGPQQDPRLYWQGGPALGRSFLHGPELDKGQLRIHRDGIYMVHIQVTLAICSSTTASRHHPTTLAVGICSPASRSISLLRLSFHQGCTIASQRLTPLARGDTLCTNLTGTLLPSRNTDETFFGVQWVRP | 2 | 0 | 0 | 0
6 | MSN (protein) PKTISVRVTTMDAELEFAIQPNTTGKQLFDQVVKTIGLREVWFFGLQYQDTKGFSTWLKLNKKVTAQDVRKESPLLFKFRAKFYPEDVSEELIQDITQRLFFLQVKEGILNDDIYCPPETAVLLASYAVQSKYGDFNKEVHKSGYLAGDKLLPQRVLEQHKLNKDQWEERIQVWHEEHRGMLREDAVLEYLKIAQDLEMYGVNYFSIKNKKGSELWLGVDALGLNIYEQNDRLTPKIGFPWSEIRNISFNDKKFVIKPIDKKAPDFVFYAPRLRINKRILALCMGNHELYMRRRKPDTIEVQQMKAQAREEKHQKQMERAMLENEKKKREMAEKEKEKIEREKEELMERLKQIEEQTKKAQQELEEQTRRALELEQERKRAQSEAEKLAKERQEAEEAKEALLQASRDQKKTQEQLALEMAELTARISQLEMARQKKESEAVEWQQKAQMVQEDLEKTRAELKTAMSTPHVAEPAENEQDEQDENGAEASADLRADAMAKDRSEEERTTEAEKNERVQKHLKALTSELANARDESKKTANDMIHAENMRLGRDKYKTLRQIRQGNTKQRIDEFESM | 4 | 3 | 0 | 0
7 | HSPD1 (protein) AKDVKFGADARALMLQGVDLLADAVAVTMGPKGRTVIIEQSWGSPKVTKDGVTVAKSIDLKDKYKNIGAKLVQDVANNTNEEAGDGTTTATVLARSIAKEGFEKISKGANPVEIRRGVMLAVDAVIAELKKQSKPVTTPEEIAQVATISANGDKEIGNIISDAMKKVGRKGVITVKDGKTLNDELEIIEGMKFDRGYISPYFINTSKGQKCEFQDAYVLLSEKKISSIQSIVPALEIANAHRKPLVIIAEDVDGEALSTLVLNRLKVGLQVVAVKAPGFGDNRKNQLKDMAIATGGAVFGEEGLTLNLEDVQPHDLGKVGEVIVTKDDAMLLKGKGDKAQIEKRIQEIIEQLDVTTSEYEKEKLNERLAKLSDGVAVLKVGGTSDVEVNEKKDRVTDALNATRAAVEEGIVLGGGCALLRCIPALDSLTPANEDQKIGIEIIKRTLKIPAMTIAKNAGVEGSLIVEKIMQSSSEVGYDAMAGDFVNMVEKGIIDPTKVVRTALLDAAGVASLLTTAEVVVTEIPKEEKDPGMGAMGGMGGGMGGGMF | 6 | 10 | 2 | 0
8 | SLC25A5 (protein) TDAAVSFAKDFLAGGVAAAISKTAVAPIERVKLLLQVQHASKQITADKQYKGIIDCVVRIPKEQGVLSFWRGNLANVIRYFPTQALNFAFKDKYKQIFLGGVDKRTQFWLYFAGNLASGGAAGATSLCFVYPLDFARTRLAADVGKAGAEREFRGLGDCLVKIYKSDGIKGLYQGFNVSVQGIIIYRAAYFGIYDTAKGMLPDPKNTHIVISWMIAQTVTAVAGLTSYPFDTVRRRMMMQSGRKGTDIMYTGTLDCWRKIARDEGGKAFFKGAWSNVLRGMGGAFVLVLYDEIKKYT | 30 | 19 | 3 | 6
9 | MARS (protein) MRLFVSDGVPGCLPVLAAAGRARGRAEVLISTVGPEDCVVPFLTRPKVPVLQLDSGNYLFSTSAICRYFFLLSGWEQDDLTNQWLEWEATELQPALSAALYYLVVQGKKGEDVLGSVRRALTHIDHSLSRQNCPFLAGETESLADIVLWGALYPLLQDPAYLPEELSALHSWFQTLSTQEPCQRAAETVLKQQGVLALRPYLQKQPQPSPAEGRAVTNEPEEEELATLSEEEIAMAVTAWEKGLESLPPLRPQQNPVLPVAGERNVLITSALPYVNNVPHLGNIIGCVLSADVFARYSRLRQWNTLYLCGTDEYGTATETKALEEGLTPQEICDKYHIIHADIYRWFNISFDIFGRTTTPQQTKITQDIFQQLLKRGFVLQDTVEQLRCEHCARFLADRFVEGVCPFCGYEEARGDQCDKCGKLINAVELKKPQCKVCRSCPVVQSSQHLFLDLPKLEKRLEEWLGRTLPGSDWTPNAQFITRSWLRDGLKPRCITRDLKWGTPVPLEGFEDKVFYVWFDATIGYLSITANYTDQWERWWKNPEQVDLYQFMAKDNVPFHSLVFPCSALGAEDNYTLVSHLIATEYLNYEDGKFSKSRGVGVFGDMAQDTGIPADIWRFYLLYIRPEGQDSAFSWTDLLLKNNSELLNNLGNFINRAGMFVSKFFGGYVPEMVLTPDDQRLLAHVTLELQHYHQLLEKVRIRDALRSILTISRHGNQYIQVNEPWKRIKGSEADRQRAGTVTGLAVNIAALLSVMLQPYMPTVSATIQAQLQLPPPACSILLTNFLCTLPAGHQIGTVSPLFQKLENDQIESLRQRFGGGQAKTSPKPAVVETVTTAKPQQIQALMDEVTKQGNIVRELKAQKADKNEVAAEVAKLLDLKKQLAVAEGKPPEAPKGKKKK | 0 | 2 | 0 | 0
